# B1: monoclonal antibody CA45 (antibody, V domains shown)
# VH: QVQLQEWGEGLVKPSETLSLTCAVYGGSISGYYHWNWIRLPPGKGLEWIGNIDNSASTNYNPSLKTRVTISKDTSKNQISLKVRSLTAADTAVYYCARDPGFTIFGVVITSWSGLDSWGQGAVVTVSS
# VL: DIQMTQSPSSLSASVGDTVTITCRASQSISNNLAWYQQRPRRAPQLLIYAASNLASGVPSRFSGSGSGTDFTLTISSLQAEDFAAYYCQQHNTLPLTFGGGTKVEI
# Biological target: BDBV GP ectodomain (Bundibugyo virus)
binder,measurement,value
B1,EC50,0.65 to 1.41 nM

# Source: patent US20200040065A1 (INTEGRATED BIOTHERAPEUTICS, published 2020)
